Measurements published in paper PMC8281565.

Target: histone H3 (UniProt P68431)
Experiment: co-immunoprecipitation (IP with SV40 antibody, WB, densitometry)
Details: nuclear extracts from transfected HCT116 cells; three different experiments; parent: est. 1.0; read off a plot

With “SV40 Large T antigen wild type (from UniProt P03070) S106A; S111A; S112G” the ratio to parent was 0.61.
